{"source": "paper PMC3247843", "target": "soluble human FcRn (human) (UniProt P55899)", "sequence (P55899 24-297, chain 1 of 2)": "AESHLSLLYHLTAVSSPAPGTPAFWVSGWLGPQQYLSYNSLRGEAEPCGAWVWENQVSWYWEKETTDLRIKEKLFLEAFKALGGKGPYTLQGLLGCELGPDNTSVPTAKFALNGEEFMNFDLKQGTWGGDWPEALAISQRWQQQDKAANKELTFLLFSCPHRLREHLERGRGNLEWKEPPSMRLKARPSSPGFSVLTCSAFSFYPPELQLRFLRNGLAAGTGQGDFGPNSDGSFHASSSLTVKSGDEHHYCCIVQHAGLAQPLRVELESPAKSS", "sequence (P61769 21-119, chain 2 of 2, further chain)": "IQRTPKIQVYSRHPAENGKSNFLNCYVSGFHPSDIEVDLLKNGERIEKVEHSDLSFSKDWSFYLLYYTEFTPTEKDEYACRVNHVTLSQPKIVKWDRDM", "test": "SPR"}
{"substance": "recombinant human IgG1–H435R (antibody)", "values": [{"measurement": "KD relative to WT IgG1 (% higher than the KD of WT IgG1)", "result": 50}]}
{"substance": "recombinant human IgG3 (anti-Streptococcus pneumoniae serotype 6) (antibody)", "values": [{"measurement": "KD relative to WT IgG1 (fold of the KD of WT IgG1)", "result": 2}]}
